Source: publication PMC6424575

Biological target: stand-alone thioesterase (TE) domain of the 6-deoxyerythronolide B synthase (DEBS)
Experiment: SEC

stoichiometry N: 2
Substance: stand-alone thioesterase (TE) domain of the 6-deoxyerythronolide B synthase (DEBS) (domain or fragment)
